The supplement of paper PMC9170038

Assays:
MS2 coat protein [1] = assay: apparent KD of MS2 coat protein, switch ON state; designed switch direction (-1 OFF switch, 1 ON switch): 1; higher = weaker reporter binding; settings: FMN input: 0 or 200 uM; Eterna round: R93 (includes R88 designs)
How it was run: (§1)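 With or without constant ligand, designed RNA switches in 100 mM Tris-HCl pH 7.5, 80 mM KCl and 4 mM MgCl2 were titrated with SNAP-549-labelled MS2 coat protein. Concentrations went up in twofold steps from 0.7 or 1.5 nM to 3 µM. The switches had been transcribed on-chip from Illumina sequencing clusters, and apparent KD is the per-design median of normalised cluster binding-curve fits.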

MS2 coat protein [2] = assay: apparent KD of MS2 coat protein, switch OFF state (with FMN for OFF switches, without FMN for ON switches); designed switch direction (-1 OFF switch, 1 ON switch): 1; higher = weaker reporter binding; settings: FMN input: 0 or 200 uM; Eterna round: R93 (includes R88 designs)
How it was run: as §1

| Sequence | apparent KD of MS2 coat protein (MS2 coat protein [1]) | apparent KD of MS2 coat protein (MS2 coat protein [2]) |
| --- | --- | --- |
| AAAAAACAUGAGGAUCACCCAUGUAAAAAAAACGCAGGAUAUCCCUUUUUUAAAUGGGAGGGAGAAGGGUGAAAAA [Nob's Hobby 13 - Jieux - Same State 1] | 22.4 nM | 43.8 nM |
| AUAAAAUACUGUGAGGAUAUCCAUAAUAAAACAUGAGGAUCACCCAUGUGUAGAUAAUAAUAAUGGGAGAAGGCACAUAAUAAAU [SS2 M41] | 24.2 nM | 27.6 nM |
| AGGAAACAUGAGGAUCACCCAUGUAAAAGGUGGUUAGGAUAUGCAAAAAGAAAAAGAAAAGCAGAAGGGACAAGAA [mod of top voted: #1] | 351 nM | 600 nM |
| AAGAAACAUGAGGAUCACCCAUGUAAGAUAAACACAGGAUAUGCGAAAAUAAAUAAAUAAGCAGAAGGGUGAAGAA [Mat - Same State 1 - Tesla mod - 66] | 14.8 nM | 42.4 nM |
| AAAUAAAAAAAAAAGGAUAUUCAUGUAAAAACAUGAGGAUCACCCAUGUAAAAAAAUAAAAAUAAAAAGAAGGAAAAAUAAAAAA [SS2: 85 No MS2] | 77.1 nM | 164 nM |
| AGGAGACAUGAGGAUCACCCAUGUGAGAAGAGGCGAGGAUAUCGAAAGAAAGAAGAGAAACGAGAAGGCGCGAGCG [salish99-SS1-028] | 26.7 nM | 34.3 nM |
| UAAAAACAUGAGGAUCACCCAUGUAGAAACAUGGGAGGAUAUACAAAGACGAAAGUCAAAGUAGAAGGCCUAAAAU [Mat - Same State 1 - Mod - D169] | 51.4 nM | 43.4 nM |
| AAGAAACAUGAGGAUCACCCAUGUAAAUAAAUCUCAGGAUAUCGUACAUGGAAGAUCUAACGAGAAGGGAGAAGAA [Pariah 1 (MS2 Riboswitches - Same State 1)] | 85.7 nM | 63.4 nM |
| AAAAAGGAGAGAGAGGAUAUCCAAAGGAAAACAUGAGGAUCACCCAUGUAAAAGGUAGGAAAUUGGGAGAAGGCUCAAGAGAGAG [salish99-ss2-107] | 17.6 nM | 36.5 nM |
| AAGAAAGUUUACGAGGAUAUGUUCCGCAUAACAUGAGGAUCACCCAUGUGAACAAGAAAGGCGACGCAGAAGGCGUGAGCAAAGA [Atanansori] | 26.1 nM | 403 nM |
| AAUCCAAAUAGUCAGGAUAUCAAAAAUAAGACAUGAGGAUCACCCAUGUACUAAGUAAAAGUAAAUGAGAAGGGACAGGGUGAAA [JR_SS002_Sub402] | 138 nM | 145 nM |
| AAAACACAUGAGGAUCACCCAUGUAAAAACAUGAGAGGAUAUGCAUGAAAAACAUGCUAUGCAGAAGGCUCAUGUG [SS1 - 1] | 20.9 nM | 27.2 nM |
| AAUACACAUGAGGAUCACCCAUGUAGAAAGAAGGCAGGAUAUCAGAUCCACAUGUGAUAAUGAGAAGGGCCAAUAA [SS 1 Tesla 9] | 21.1 nM | 102 nM |
| GGAAAUAACAGAGAGGAUAUCCAAAGGAAAACAUGAGGAUCACCCAUGUAAAAGGAAGGAAAUUGGGAGAAGGCUCAAAAUAGAA [salish99-ss2-019] | 15.1 nM | 26.7 nM |
| GUGAGGAAGAGAGAGGAUAUCCAAAGGAAAACAUGAGGAUCACCCAUGUAAAAGGUAGGAAAUUGGGAGAAGGCUCAAGAGAGAG [salish99-ss2-067] | 40.2 nM | 34.7 nM |
| AGAAAUAAACCGAAGGAUAUCCAAACCUAAACAUGAGGAUCACCCAUGUAAAAGAAAAUAAAAUGGGAGAAGGUCGGAAAUAAGA [Designing denovo 13] | 17.7 nM | 25.3 nM |

| Sequence | apparent KD of MS2 coat protein (MS2 coat protein [1]) | apparent KD of MS2 coat protein (MS2 coat protein [2]) |
| --- | --- | --- |
| CUUAGACAUGAGGAUCACCCAUGUCGAACAAACAAAGGAUAUGGGAGCCGAAGAAGGCUAUUAGAAGGUUGCAAAA [Isesinbe] | 26.4 nM | 28.6 nM |
| AAAUAAAUGACUCAGGAUAUAUCAUAGAGUACAUGAGGAUCACCCAUGUUUUAAUAACAUGUUUGGUAGAAGGGAGUCAAUAAAU [LROPPY Same State 2 - v06_deltaG=1.99] | 25.8 nM | 127 nM |
| GAUAAACAUGAGGAUCACCCAUGUAGAAAUAUGGGAGGAUAUACAAAGACGAAAGUCAAAGUAGAAGGCCUAAAAG [77%, Mat - Mod of Eli - With 1 more U's] | 24.4 nM | 55.5 nM |
| AGGAGACAUGAGGAUCACCCAUGUGAGAAGAGGCGAGGAUAUCGAAAGAAAGAAGAGAAACGAGAAGGCGCGAGUG [salish99-SS1-026] | 28.1 nM | 40.9 nM |
| CAUCAUGCGCCUAAGGAUAUGUCUCACAAGACAUGAGGAUCACCCAUGUAGAAUAAAUAAACGAUGCAGAAGGUGGAGUGCAUGC [Vetimaor] | 56.7 nM | 361 nM |
| GAAAAACAUGAGGAUCACCCAUGUAGUAAUAUGGAAGGAUAUACAAAGACGUAAGUCAAAGUAGAAGGUCUAAAAG [Garnet 100] | 21.6 nM | 24.7 nM |
| CGAAAGGAGAGAGAGGAUAUCCAAAGGAAAACAUGAGGAUCACCCAUGUAGAAGGUAGGAGAUUGGGAGAAGGCUCAAGAUAGAG [salish99-ss2-145] | 29.5 nM | 73.2 nM |
| AGGAAACAUGAGGAUCACCCAUGUAGAAAUAUGGGAGGAUAUACAAAGACGAAAGUCAAAGUAGAAGGCCUAAAAA [Mat - Same State 1 - Mod - D151] | 17.6 nM | 57.1 nM |
| AAAAAAAAAAGACAGGAUAUCCAAAAAAAAACAUGAGGAUCACCCAUGUAAAAAAAAAAAAAAUGGGAGAAGGGUCAAAAAAAAAA [Louisiana 5 - Jieux - Same State 2] | 21.9 nM | 36.5 nM |
| AAUAUACAUGAGGAUCACCCAUGUUAGGUGGGACUAGGAUAUCAGAGUACAUAAUGAACAUGAGAAGGAGUAUCAA [JR_SS001_Sub404] | 115 nM | 110 nM |
| UGGAGACAUGAGGAUCACCCAUGUAGAAGGAUGGGAGGAUAUACAAAGACGAGAGUCAGAGUAGAAGGCCUAGGAG [salish99-ss1-188] | 31.3 nM | 42.8 nM |
| AAAAAACAUGAGGAUCACCCAUGUGCAAAAUUCGCAGGAUAUUUUUUUUUUAAAUGAGAGGGAGAAGGGUGUAAAA [Nob's Hobby 22 - Jieux - Same State 1] | 27.4 nM | 33 nM |
| AGAAAUAAAAGCUAGGAUAUCCAAAAGAAAACAUGAGGAUCACCCAUGUGAAAGAAAAUAAAAUGGGAGAAGGAGCAAAAUAAGA [Topaz 51] | 17.5 nM | 31 nM |
| AAAAAACAUGAGGAUCACCCAUGUGCAAAAUUCGCAGGAUAUCCCUUUUUUAAAUGGGAGGGAGAAGGGUGUAAAA [Nob's Hobby 18 - Jieux - Same State 1] | 27.1 nM | 47.4 nM |
| AAAUAACAUGAGGAUCACCCAUGUUGCAGCGGUUGAGGAUAUGUGGGUGAAAAUAGCAUGGCAGAAGGCGAGUGUA [SameState1 Malc#26] | 71.3 nM | 71.9 nM |
| AAAAGGGCGACACAGGAUAUGUUGACUCUAACAUGAGGAUCACCCAUGUGCGUUUAGGGUCGUGCGCAGAAGGGUGUAGCUCGGA [Orvele] | 12.9 nM | 24.1 nM |
